{"source": "paper PMC2672303", "about": "“Dosage Effects of Cohesin Regulatory Factor PDS5 on Mammalian Development: Implications for Cohesinopathies”", "target": "T1, C-PDS5B-His wild type (C-terminal PDS5B, two AT-hooks) (Homo sapiens, UniProt Q9NTI5 1134-1446)", "T1 sequence": "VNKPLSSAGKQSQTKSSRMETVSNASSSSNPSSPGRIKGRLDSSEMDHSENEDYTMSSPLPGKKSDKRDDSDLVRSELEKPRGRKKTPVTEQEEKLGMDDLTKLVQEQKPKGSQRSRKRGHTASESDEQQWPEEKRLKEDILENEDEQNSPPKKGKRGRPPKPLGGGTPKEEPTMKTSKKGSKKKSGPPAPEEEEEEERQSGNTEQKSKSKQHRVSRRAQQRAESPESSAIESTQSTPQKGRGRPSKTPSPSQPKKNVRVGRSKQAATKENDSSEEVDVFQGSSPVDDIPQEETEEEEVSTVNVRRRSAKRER", "experiment": "EMSA; 5-40 ng protein; EMSA: 20 ng protein (5-40 ng in Fig. 7E) with 2.25 pmol 32P probe, 25 C, 5 min, 6% polyacrylamide gel; protein dialyzed in 50 mM Tris pH 7.5, 0.5 mM EDTA, 100 mM NaCl, 10% glycerol, 1 mM DTT; binding buffer as in cited work", "settings": "protein: recombinant; tags: N-terminal HA; C-terminal 6xHis; label: 32P; blunt"}
{"binder": "T5-8-T5 probe (dsDNA) DNA 1: GGACTCCAGGTCCAGGACCGCTTTTTGCGCGCGCTTTTTGCGGGAGGTCCAGCTGTCCACCTCC DNA 2: GGAGGTGGACAGCTGGACCTCCCGCAAAAAGCGCGCGCAAAAAGCGGTCCTGGACCTGGAGTCC", "values": [{"measurement": "binding result", "result": "binds"}]}
